Data: patent publication US20150004155A1 (AIMM THERAPEUTICS B V, published 2015)

Legend:
[1] = target: T1, purified recombinant RSV-Gb protein (Sino Biologics) (Respiratory Syncytial Virus subtype B, …, UniProt O36633 67-299); test: SPR (IBIS MX96), IgG captured on anti-human IgG
T1 sequence: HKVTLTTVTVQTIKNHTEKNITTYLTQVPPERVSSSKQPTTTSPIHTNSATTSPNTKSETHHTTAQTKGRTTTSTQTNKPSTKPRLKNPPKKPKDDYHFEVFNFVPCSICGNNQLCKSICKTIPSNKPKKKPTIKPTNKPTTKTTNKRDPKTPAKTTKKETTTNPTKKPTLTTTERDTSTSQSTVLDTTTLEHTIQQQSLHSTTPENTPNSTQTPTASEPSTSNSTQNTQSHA

[2] = target: T2, RSV G protein of RSV A2 (native, on RSV A2 infected HEp2 cells / virus) (Respiratory Syncytial Virus subtype A, …, UniProt P03423 1-298); test: FACS, RSV infected cells, anti-huIgG-PE
T2 sequence: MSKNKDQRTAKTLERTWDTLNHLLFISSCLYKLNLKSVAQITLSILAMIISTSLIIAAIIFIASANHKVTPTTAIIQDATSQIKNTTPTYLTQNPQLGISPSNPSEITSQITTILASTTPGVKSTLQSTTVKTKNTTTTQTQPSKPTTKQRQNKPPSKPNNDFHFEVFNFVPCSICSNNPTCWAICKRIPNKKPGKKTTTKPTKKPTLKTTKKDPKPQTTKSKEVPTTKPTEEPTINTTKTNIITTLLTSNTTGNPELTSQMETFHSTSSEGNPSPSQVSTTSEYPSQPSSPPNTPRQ

[3] = target: T1, purified recombinant RSV-Gb protein …; test: SPR (IBIS MX96), IgG captured on anti-human IgG, RSV Gb injected
[4] = target: T3, purified recombinant RSV-Ga protein (Sino Biologics) (Respiratory Syncytial Virus subtype A, …, UniProt P03423 64-298); test: SPR (IBIS MX96), IgG captured on anti-human IgG, RSV Ga injected
T3 sequence: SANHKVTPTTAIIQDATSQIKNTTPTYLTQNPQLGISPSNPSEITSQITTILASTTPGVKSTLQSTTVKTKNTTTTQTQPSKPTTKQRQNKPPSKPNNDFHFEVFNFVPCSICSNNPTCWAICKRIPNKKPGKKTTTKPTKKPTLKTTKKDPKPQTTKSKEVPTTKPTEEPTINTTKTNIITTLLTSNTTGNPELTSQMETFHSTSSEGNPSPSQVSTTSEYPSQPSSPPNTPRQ

[5] = target: T4, RSV G protein in denatured and boiled supernatant of RSV A2 infected HEp2 cells (western blot) (Respiratory Syncytial Virus subtype A, …, UniProt P03423 66-298); test: western blot, denatured RSV A2 supernatant
T4 sequence: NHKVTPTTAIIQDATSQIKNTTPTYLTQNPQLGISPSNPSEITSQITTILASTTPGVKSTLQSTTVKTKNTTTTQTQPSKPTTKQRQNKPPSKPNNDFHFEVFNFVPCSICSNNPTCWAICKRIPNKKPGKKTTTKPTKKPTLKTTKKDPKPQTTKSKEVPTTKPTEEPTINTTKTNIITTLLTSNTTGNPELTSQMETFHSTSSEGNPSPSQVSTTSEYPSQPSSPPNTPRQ

Row | Binder | binding result [1] | binding result [2] | Kd [3] | koff [3] | kon [3] | Kd [4] | koff [4] | kon [4] | binding result [5]
1 | AT46 (antibody, V domains shown) VH: EVQLVESGGGLVQPGGSLRLSCAASGFTFSRYVMSWVRQAPGRGLEWVSSITGSGATTYYADSVKGRFTISRDNSKNTVYLQMNRLRAEDTAIYYCANCGRAGQIFDDWGQGTLVTVSS VL: QPVLTQSPSASASLGASVKLTCTLSSGHRNYAIAWHQQRPEKGPRYLMKIYTNGSHYPGDGTPDRFSGSSSGAERYLTISSLQSEDEADYYCQTWGAGIWVFGGGTKLTVLG | no binding |  |  |  |  |  |  |  | 
2 | AT36 (antibody, V domains shown) VH: QVQVVQSGAEVKKPGASVKVSCKTSGYNFIDHSVSWVRQAPGQGLEWMGWISPYNHRTVYAEKFQGRVTMTTDTSTRTVSMELRRLTSDDTAVYFCARDRVQQGEGNFFDHWGQGTPVTVTS VL: DIVMTQSPDSLAVSLGERATINCKSSQSLLHSSNNKIYLAWYQQKPGQPPKLLLYWASTRESGVPDRFTGSGSGTDFTLTINSLQAEDVAVYYCQQYYTTHPTFGQGTRLEIKR |  | binds |  |  |  |  |  |  | 
3 | AT40 (antibody, V domains shown) VH: QVQLVESGGGVVQPGMSHRLSCAASTLIFDRHALHWVRQAPGAGLEWVAILSYDGTTDYYADSVKGRFTVSRDTSKNTVFLQMNGLRPQDTAVYYCARGRALDDFADYGGYYFDYWGQGILVTVSS VL: DIQMTQSPSSVSASVGDKVTITCRASQGISTWLAWYQQKPGKAPALLIYSASRLQSGVPSRFSGSGSGTDFTLTISSLQPEDYATYYCQQANTFPFTFGPGTKVDIKR |  |  | 0.1 nM | 3e-05 s⁻¹ | 340000 M⁻¹ s⁻¹ | 0.2 nM | 6e-05 s⁻¹ | 350000 M⁻¹ s⁻¹ | 
4 | AT42 (antibody, V domains shown) VH: QVQLQESGPGLVQPSETLSLTCTVSGDSITSNVYYWGWIRQPPGKGLEWIGSIFHSGITHYTPSLNSRVTISVDTSKNQFSLRLSSATAADTAVYYCARHWAGLYFDSWGQGALVAVSS VL: EIVLTQSPGTLSLSPGERATLSCRASQTVSSSHLAWYQQKPGQAPRLLIHGSSSRATGIPERFSGSGSGPDFTLTISRLKPEDFAVYYCQYYGDSPGSFGEGTKVEIKR |  |  | 0.3 nM | 0.0001 s⁻¹ | 400000 M⁻¹ s⁻¹ | 1.3 nM | 0.00076 s⁻¹ | 640000 M⁻¹ s⁻¹ | no binding
5 | AT44 (antibody, V domains shown) VH: QVQLQASGPGLVKPSETLSLTCNVSGYSVSSGHYWAWVRQSPGKGLEWIGGIHHSGSTYTNPPLKSRVSISIDTSKNQFSLRLTSVTAADTAVYFCARDLYDLSTGPFWFDPWGQGTLVTVSS VL: EIVMTQSPATLSVSPGERVTLSCRASQSVSTKVVWYQQKFGQAPRLLIYGASTRATGIPVRFSGSGSGTEFTLTISSLQSEDLAVYFCQQYNKWPMYTFGQGTKLEIKR |  |  | 0.1 nM | 4e-05 s⁻¹ | 340000 M⁻¹ s⁻¹ | 0.1 nM | 3e-05 s⁻¹ | 350000 M⁻¹ s⁻¹ | 
6 | AT32 (antibody, V domains shown) VH: QVQLVQSGAEMKKPGASVKVSCQVAGYTLTELSIHWVRQTPGNGLEWMGGFEPEDGEYIYPQKSQGRVTMTEDTSTGTAYMELRSLRSDDTAVYYCAAEARYCDNSRCSPNFDHWGQGTLVAVSS VL: DIVMTQSPDSLAVSLGERATFSCKSSQSVLYDSNNKNYLAWYQQRPGQPPKLLIYWASTRESGVPDRFSGSGSGTDFTLTISSLQPEDVAVYYCQQYYDPLITFGQGTRLEIKR |  |  |  |  |  | 0.6 nM | 0.00043 s⁻¹ | 750000 M⁻¹ s⁻¹ | 
7 | AT34 (antibody, V domains shown) VH: QVQLMESGGGVVQPGKSLRLSCAASGFTFSHYGMHWVRQAPGKGLEWVAVISYDGDKKYYADSVKGRFTISRDNSKNTLHLHMNSLRHEDTAVYFCASQGAKGGHELSFYCALDVWGQGTTVAVSS VL: DIQMTQSPSTLSASVGDRVTITCRASQGIGSWLAWYQQKPGKAPKLLIYNASGLESGVPSGFSGSGSGTEFTLTISSLQPDDSATYYCQQYNSHTWTFGQGTKVEFKR |  | binds |  |  |  |  |  |  | 
8 | AT49 (antibody, V domains shown) VH: QVLLVQSGAEIKKPGSSVKISCKASGGTFSSLALNWVRQAPGQGLQWMGGIIPLFGTQNYAQKFQGRVTITADESTSTAYMELSGLRPEDTAVYYCALFLWFGDQTSDDGFDVWGQGTVVTVSS VL: DIVMTQSPLSLTVTPGEPASISCRSSQSLLHGNGYKYLHWYLQKPGQSPQLLIYLGSNRASGVPARFSGSGSDTDFTLKISTVETEDVGVYYCMQALQSPTFGQGTKVEIKR |  |  | 0.5 nM | 5e-05 s⁻¹ | 120000 M⁻¹ s⁻¹ | 0.1 nM | 3e-05 s⁻¹ | 220000 M⁻¹ s⁻¹ | 
